± gives the uncertainty stated by the source.

To fix the notation:
B1: Ankyrin-2, residues 3571 to 3650; numbered along this chain, Q01484 (parent)
chain: ERLAYIADHLGFSWTELARELDFTEEQIHQIRIENPNSLQDQSHALLKYWLERDGKHATDTNLVECLTKINRMDIVHLME

In the data set the parent is B1. In words: abundance fitness (aPCA) (normalised: wild type 0, dead -1); higher = more abundant; growth selection in yeast, the domain comes from the species named. The settings on record: Homo sapiens.
Take ERLAYIADHLGFSWTELARELDFTEEQIHQIRIENPNSLQDQSHALLKYWFERDGKHATDTNLVECLTKINRMDIVHLME [L51F]: the abundance fitness stood at 0.037 ± 0.17. Under ERLAYIADHLGFSWTELARELDFTEEQIHQIRIENPNSLQDQSHALLKYWDERDGKHATDTNLVECLTKINRMDIVHLME [L51D] stands -0.058 ± 0.11; under ERLAYIADHLGFSWTELARELDFTEEQIHQIRIENPNSLQDQSHALLKYWLELDGKHATDTNLVECLTKINRMDIVHLME [R53L], -0.236 ± 0.068; under ERLAYIADHLGFSWTELARELDFTEEQIHQIRIENPNSLQDQSHALLKYWLESDGKHATDTNLVECLTKINRMDIVHLME [R53S], 0.005 ± 0.056. In the case of ERLAYIADHLGFSWTELARELDFTEEQIHQIRIENPNSLQDQSHALLKYWLEVDGKHATDTNLVECLTKINRMDIVHLME [R53V], the abundance fitness was -0.067 ± 0.07. Under ERLAYIADHLGFSWTELARELDFTEEQIHQIRIENPNSLQDQSHALLKYWLETDGKHATDTNLVECLTKINRMDIVHLME [R53T] stands -0.029 ± 0.072; under ERLAYIADHLGFSWTELARELDFTEEQIHQIRIENPNSLQDQSHALLKYWLEPDGKHATDTNLVECLTKINRMDIVHLME [R53P], -0.216 ± 0.055. To ERLAYIADHLGFSWTELARELDFTEEQIHQIRIENPNSLQDQSHALLKYWLEMDGKHATDTNLVECLTKINRMDIVHLME [R53M] belongs -0.109 ± 0.098; to ERLAYIADHLGFSWTELARELDFTEEQIHQIRIENPNSLQDQSHALLKYWLEKDGKHATDTNLVECLTKINRMDIVHLME [R53K], -0.029 ± 0.16. To ERLAYIADHLGFSWTELARELDFTEEQIHQIRIENPNSLQDQSHALLKYWLEGDGKHATDTNLVECLTKINRMDIVHLME [R53G] belongs -0.117 ± 0.055.

In the case of ERLAYIADHLGFSWTELARELDFTEEQIHQIRIENPNSLQDQSHALLKYWLEDDGKHATDTNLVECLTKINRMDIVHLME [R53D], the abundance fitness was -0.413 ± 0.16. As to ERLAYIADHLGFSWTELARELDFTEEQIHQIRIENPNSLQDQSHALLKYWLEADGKHATDTNLVECLTKINRMDIVHLME [R53A], the abundance fitness was -0.052 ± 0.063. With ERLAYIADHLGFSWTELARELDFTEEQIHQIRIENPNSLQDQSHALLKYWLENDGKHATDTNLVECLTKINRMDIVHLME [R53N], the abundance fitness was -0.144 ± 0.17. To ERLAYIADHLGFSWTELARELDFTEEQIHQIRIENPNSLQDQSHALLKYWLEWDGKHATDTNLVECLTKINRMDIVHLME [R53W] belongs 0.002 ± 0.079; to ERLAYIADHLGFSWTELARELDFTEEQIHQIRIENPNSLQDQSHALLKYWLECDGKHATDTNLVECLTKINRMDIVHLME [R53C], -0.086 ± 0.098; to ERLAYIADHLGFSWTELARELDFTEEQIHQIRIENPNSLQDQSHALLKYWLEHDGKHATDTNLVECLTKINRMDIVHLME [R53H], -0.092 ± 0.15. With ERLAYIADHLGFSWTELARELDFTEEQIHQIRIENPNSLQDQSHALLKYWLEYDGKHATDTNLVECLTKINRMDIVHLME [R53Y], the abundance fitness was -0.166 ± 0.19. Take ERLAYIADHLGFSWTELARELDFTEEQIHQIRIENPNSLQDQSHALLKYWLLRDGKHATDTNLVECLTKINRMDIVHLME [E52L]: the abundance fitness was 0.012 ± 0.081. For the variant ERLAYIADHLGFSWTELARELDFTEEQIHQIRIENPNSLQDQSHALLKYWLARDGKHATDTNLVECLTKINRMDIVHLME [E52A], the abundance fitness came to 0.037 ± 0.094. Turning to ERLAYIADHLGFSWTELARELDFTEEQIHQIRIENPNSLQDQSHALLKYWLFRDGKHATDTNLVECLTKINRMDIVHLME [E52F], the abundance fitness was -0.034 ± 0.14. For ERLAYIADHLGFSWTELARELDFTEEQIHQIRIENPNSLQDQSHALLKYWLMRDGKHATDTNLVECLTKINRMDIVHLME [E52M], the abundance fitness is -0.083 ± 0.12. Under ERLAYIADHLGFSWTELARELDFTEEQIHQIRIENPNSLQDQSHALLKYWLGRDGKHATDTNLVECLTKINRMDIVHLME [E52G] stands -0.146 ± 0.055. ERLAYIADHLGFSWTELARELDFTEEQIHQIRIENPNSLQDQSHALLKYWLIRDGKHATDTNLVECLTKINRMDIVHLME [E52I]: the abundance fitness was -0.039 ± 0.11. To ERLAYIADHLGFSWTELARELDFTEEQIHQIRIENPNSLQDQSHALLKYWLTRDGKHATDTNLVECLTKINRMDIVHLME [E52T] belongs 0.006 ± 0.087; to ERLAYIADHLGFSWTELARELDFTEEQIHQIRIENPNSLQDQSHALLKYWLDRDGKHATDTNLVECLTKINRMDIVHLME [E52D], -0.178 ± 0.13.

With ERLAYIADHLGFSWTELARELDFTEEQIHQIRIENPNSLQDQSHALLKYWLPRDGKHATDTNLVECLTKINRMDIVHLME [E52P], the abundance fitness is -0.378 ± 0.12. Under ERLAYIADHLGFSWTELARELDFTEEQIHQIRIENPNSLQDQSHALLKYWLHRDGKHATDTNLVECLTKINRMDIVHLME [E52H] stands -0.09 ± 0.12. Under ERLAYIADHLGFSWTELARELDFTEEQIHQIRIENPNSLQDQSHALLKYWLWRDGKHATDTNLVECLTKINRMDIVHLME [E52W] stands -0.045 ± 0.12; under ERLAYIADHLGFSWTELARELDFTEEQIHQIRIENPNSLQDQSHALLKYWLSRDGKHATDTNLVECLTKINRMDIVHLME [E52S], -0.057 ± 0.062. To ERLAYIADHLGFSWTELARELDFTEEQIHQIRIENPNSLQDQSHALLKYWLKRDGKHATDTNLVECLTKINRMDIVHLME [E52K] belongs 0.036 ± 0.13. As for ERLAYIADHLGFSWTELARELDFTEEQIHQIRIENPNSLQDQSHALLKYWLRRDGKHATDTNLVECLTKINRMDIVHLME [E52R], the abundance fitness was -0.045 ± 0.088. Consider ERLAYIADHLGFSWTELARELDFTEEQIHQIRIENPNSLQDQSHALLKYWLQRDGKHATDTNLVECLTKINRMDIVHLME [E52Q], for which the abundance fitness turned out to be 0.088 ± 0.12.

Regarding ERLAYIADHLGFSWTELARELDFTEEQIHQIRIENPNSLQDQSHALLKYWLVRDGKHATDTNLVECLTKINRMDIVHLME [E52V], the abundance fitness is 0.006 ± 0.063.

Take ERLAYIADHLGFSWTELARELDFTEEQIHQIRIENPNSLQDQSHALLKYWLCRDGKHATDTNLVECLTKINRMDIVHLME [E52C]: the abundance fitness was -0.132 ± 0.052. Turning to ERLAYIADHLGFSWTELARELDFTEEQIHQIRIENPNSLQDQSHALLKYWLYRDGKHATDTNLVECLTKINRMDIVHLME [E52Y], the abundance fitness was -0.393 ± 0.098.

For the origin of these results see the Human Domainome abundance scans (Beltran et al. 2025).
